Test results: patent US20120058126A1

Experiments:
[1] = molecular target: human sR3-AP (Ig domains 1-3) P219L (human) (UniProt P05187); experiment: sR3-AP binding assay: conditioned medium on VEGF-CΔNΔC-coated plates, AP chemiluminescence, triplicate
[2] = molecular target: human sR3-AP (Ig domains 1-3) V175A (human) (UniProt P05187); experiment: as above
human sR3-AP (Ig domains 1-3) V175A (human), sequence (P05187 other isoform, or with tags, fused parts or gaps V175A V175A): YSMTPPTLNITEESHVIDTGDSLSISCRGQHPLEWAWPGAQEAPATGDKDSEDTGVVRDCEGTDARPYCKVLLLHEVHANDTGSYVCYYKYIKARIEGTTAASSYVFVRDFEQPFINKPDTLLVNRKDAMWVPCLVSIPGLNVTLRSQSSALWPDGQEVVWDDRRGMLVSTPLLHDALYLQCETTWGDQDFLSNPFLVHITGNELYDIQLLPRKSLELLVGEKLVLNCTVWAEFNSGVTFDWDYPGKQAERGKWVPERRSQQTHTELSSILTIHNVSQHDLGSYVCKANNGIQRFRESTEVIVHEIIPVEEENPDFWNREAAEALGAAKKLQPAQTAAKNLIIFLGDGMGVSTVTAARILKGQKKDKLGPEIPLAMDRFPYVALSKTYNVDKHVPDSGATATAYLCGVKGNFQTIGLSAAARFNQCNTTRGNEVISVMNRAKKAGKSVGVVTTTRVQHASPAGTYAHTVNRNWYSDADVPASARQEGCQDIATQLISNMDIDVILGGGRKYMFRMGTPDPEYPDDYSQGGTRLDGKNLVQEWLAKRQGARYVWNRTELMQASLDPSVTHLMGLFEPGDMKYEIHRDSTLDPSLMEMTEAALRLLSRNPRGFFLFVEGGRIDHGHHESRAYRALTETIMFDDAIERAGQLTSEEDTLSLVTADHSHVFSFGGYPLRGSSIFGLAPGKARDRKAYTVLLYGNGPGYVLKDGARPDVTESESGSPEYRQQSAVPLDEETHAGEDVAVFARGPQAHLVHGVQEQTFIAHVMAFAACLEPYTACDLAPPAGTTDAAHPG

recombinant mature human VEGF-CΔNΔC, sequence (P49767 112-215 limits assumed, stated change not applied): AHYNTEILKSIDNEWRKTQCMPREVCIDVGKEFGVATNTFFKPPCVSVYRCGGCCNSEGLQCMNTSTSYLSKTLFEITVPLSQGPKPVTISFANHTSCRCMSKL
human sR3-AP (Ig domains 1-3) P219L (human), sequence (P05187 other isoform, or with tags, fused parts or gaps P219L P219L): as the sequence (P05187 other isoform, or with tags, fused parts or gaps V175A V175A) above, with A151V, P195L counted along it

loss of binding against wild-type human sR3-AP [1]: 75% | loss of binding against wild-type human sR3-AP [2]: 50%
Substance: recombinant mature human VEGF-CΔNΔC (from UniProt P49767 112-215) (ligand)
